B1: anti-IL-15 Fab clone 4H10 (Fab, V domains shown)
VH: EVQLVQSGGGLVEPGGSLRLSCAASGLSISDAWMHWVRQVPGKGLEWVGLITNKTGGGTIIYAAPVKGRFTISRDDSKNTLYLQMNSLKTEDTAMYYCVTTYDQGYWGQGTMVTVSS
VL: ELVLTQSPSSLSASVGDRVTITCRASQSISRYLNWYQQKPGKAPKLLIYGASRLESGVPSRFSGSGSGTDFTLTISSLQPEDFATYYCQQSDSVPVTFGQGTRLEIKR
notes: Tested as a soluble Fab-pIII fusion molecule in E. coli culture supernatant (human Fd = VH+CH1 fused to phage pIII, human kappa light chain); Only the variable domains are tied to the clone; also called 3E3; 4H10 (3E3)
B2: anti-IL-15 Fab clone 3C1 (Fab, V domains shown)
VH: B1 VH
VL: DIVMTQSPSSLSASVGDRVPITCRASQGIRNDLGWYQQKPGKAPKLLIYAASSLQSGVPSRFSGSGSGTDFTLTISSLQPEDFATYYCLQDYNYPWTFGQGTQVEIKR
notes: Tested as a soluble Fab-pIII fusion molecule in E. coli culture supernatant; only the variable domains are tied to the clone; also called 4H7; 3C1 (4H7)
B3: anti-IL-15 Fab clone 8C5 (Fab, V domains shown)
VH: QVQLLQSGPGLVKPSQTLSLTCAISGDSVSSNSAAWNWIRQSPSRGLEWLGRTYYRSKWYNDYAVSVKSRITINPDTSKNQFSLQLNSVTPEDTAVYYCASHKDPGSSWYRQPFDYWGQGTMVTVS
VL: B1 VL
notes: Tested as a soluble Fab-pIII fusion molecule in E. coli culture supernatant; only the variable domains are tied to the clone
B4: anti-IL-15 Fab clone 1H3 (Fab, V domains shown)
VH: B1 VH
VL: ELVLTQSPGTLSLSPGERATLSCRASQSIFNYVAWYQQKPGQAPRLLIYDASNRATGIPARFSGSGSGTDFTLTISSLEPEDFAVYYCQQRSKWPPTWTFGQGTRVDIKR
notes: as for B3
B5: anti-TNF-α Fab clone TNFa#1 (Fab, V domains shown)
VH: QVQLLQSGGGLVKPGGSLRLSCVASGFTFSSYWMSWVRQAPGKGLEWIGEINHSGSTSYNPSLKSRVTISIDTSKNQFSLKLNSVATADTAVYYCARLGWTMVRGVKYYYGMDVWGQGTMVTVSS
VL: B1 VL
notes: Tested as a soluble Fab-pIII fusion molecule in E. coli culture supernatant; only the variable domains are tied to the clone; also called TNFα#1; #4
B6: anti-TNF-α Fab clone TNFa#2 (Fab, V domains shown)
VH: EVQLVQSGGGVVQPGRSLRLSCAASGFSFGDYAMHWVRQAPGKGLEWVSGISWNSRIIGYADSVKGRFTISRDKAKNSLYLQMSSLRTEDTAVYYCARMGGDSSGYYSEPYYYFDYWGQGTLVTVSS
VL: B1 VL
notes: Tested as a soluble Fab-pIII fusion molecule in E. coli culture supernatant; only the variable domains are tied to the clone; also called TNFα#2; #5

Assays:
[1] = target: T1, MBP-IL-15 fusion protein (recombinant human IL-15 fused to maltose-binding protein) (human, UniProt P40933 49-162); assay: competitive inhibition ELISA; Fab-pIII supernatant pre-incubated with soluble antigen, then on coated antigen; Kd from IC50 (Klotz plot)
T1 construct: Expressed in E. coli TG1 and purified on amylose resin; also called recombinant human IL-15 antigen
T1 sequence (P40933 49-162 limits assumed): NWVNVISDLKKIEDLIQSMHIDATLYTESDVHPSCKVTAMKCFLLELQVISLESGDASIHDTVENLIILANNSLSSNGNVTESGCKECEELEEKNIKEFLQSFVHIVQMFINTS

[2] = target: T1, MBP-IL-15 fusion protein (recombinant …); assay: ELISA (Fig. 3a), Fab-pIII supernatant on coated antigen
[3] = target: T2, recombinant human TNF-alpha (human, UniProt P01375 77-233); assay: competitive inhibition ELISA; Fab-pIII supernatant pre-incubated with soluble antigen, then on coated antigen; Kd from IC50 (Klotz plot)
T2 construct: Bought protein; also called TNF-α; tumor necrosis factor-alpha
T2 sequence (P01375 77-233 limits assumed): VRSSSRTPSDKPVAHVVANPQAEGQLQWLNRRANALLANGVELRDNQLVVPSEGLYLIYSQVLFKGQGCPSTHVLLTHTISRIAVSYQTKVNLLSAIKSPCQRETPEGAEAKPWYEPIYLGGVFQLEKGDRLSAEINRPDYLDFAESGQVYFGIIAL

Row | Binder | Kd [1] [nM] | binding result [2] | Kd [3] [nM]
1 | B1 | 100 |  | 
2 | B2 |  | binds | 
3 | B3 |  | binds | 
4 | B4 | 700 |  | 
5 | B5 |  |  | 1000
6 | B6 |  |  | 200

Source: KR20110049766A (dated 2011)
